Experimental data published in article PMC12533375, “Critical Role of IL1R2‐ENO1 Interaction in Inhibiting Glycolysis‐Mediated Pyroptosis for Protection Against Lethal Sepsis” (Advanced Science, 2025).

Biological target: T1, recombinant mouse ENO1 (rmENO1) (mouse, UniProt P17182 1-434)
T1 construct: recombinant mouse ENO1, Creative BioMart Cat. No. Eno1-244 M; The vendor's data sheet should be consulted; source: bought: Creative BioMart (Cat. No. Eno1-244 M)
Assay: SPR; OpenSPR (Nicoya); rmIL1R2 immobilised on a carboxyl sensor (EDC/NHS), rmENO1 as analyte at 12.5 to 50 nM; 40 µL/min, 20 °C; 50 mM Tris-HCl, 150 mM NaCl, 3 mM EDTA, 0.05% P20, 0.5 mM CaCl2, pH 7.4; global 1:1 fit
Conditions: both partners purified

T1 sequence (P17182 whole entry): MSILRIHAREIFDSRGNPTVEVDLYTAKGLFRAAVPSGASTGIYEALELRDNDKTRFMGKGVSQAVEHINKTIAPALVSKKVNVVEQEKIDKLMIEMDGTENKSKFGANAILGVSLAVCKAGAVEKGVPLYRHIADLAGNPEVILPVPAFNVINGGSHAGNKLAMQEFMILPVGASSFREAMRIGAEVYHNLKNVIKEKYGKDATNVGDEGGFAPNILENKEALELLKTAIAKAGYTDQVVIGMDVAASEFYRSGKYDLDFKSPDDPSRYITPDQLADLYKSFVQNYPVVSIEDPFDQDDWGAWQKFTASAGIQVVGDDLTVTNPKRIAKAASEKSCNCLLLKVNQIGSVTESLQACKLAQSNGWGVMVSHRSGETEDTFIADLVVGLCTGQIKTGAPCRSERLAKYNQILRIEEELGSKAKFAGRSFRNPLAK

B1: recombinant mouse IL1R2 (rmIL1R2) (receptor, UniProt P27931 14-355, looked up)
chain: FTTPTVVHTGKVSESPITSEKPTVHGDNCQFRGREFKSELRLEGEPVVLRCPLAPHSDISSSSHSFLTWSKLDSSQLIPRDEPRMWVKGNILWILPAVQQDSGTYICTFRNASHCEQMSVELKVFKNTEASLPHVSYLQISALSTTGLLVCPDLKEFISSNADGKIQWYKGAILLDKGNKEFLSAGDPTRLLISNTSMDDAGYYRCVMTFTYNGQEYNITRNIELRVKGTTTEPIPVIISPLETIPASLGSRLIVPCKVFLGTGTSSNTIVWWLANSTFISAAYPRGRVTEGLHHQYSENDENYVEVSLIFDPVTREDLHTDFKCVASNPRSSQSLHTTVKE
notes: recombinant mouse IL1R2, R&D Systems Cat. No. 563-MR-100; The vendor's data sheet should be consulted; source: bought: R&D Systems (Cat. No. 563-MR-100)
  Kd: 1.99 nM
